Measured values published in patent US20250243273A1 (FOURTH MILITARY MEDICAL UNIVERSITY, published 2025).

Target: T1, human BASIGIN, native, on human erythrocytes and in human tumour tissue (human, UniProt P35613 22-385)
T1 sequence (looked up): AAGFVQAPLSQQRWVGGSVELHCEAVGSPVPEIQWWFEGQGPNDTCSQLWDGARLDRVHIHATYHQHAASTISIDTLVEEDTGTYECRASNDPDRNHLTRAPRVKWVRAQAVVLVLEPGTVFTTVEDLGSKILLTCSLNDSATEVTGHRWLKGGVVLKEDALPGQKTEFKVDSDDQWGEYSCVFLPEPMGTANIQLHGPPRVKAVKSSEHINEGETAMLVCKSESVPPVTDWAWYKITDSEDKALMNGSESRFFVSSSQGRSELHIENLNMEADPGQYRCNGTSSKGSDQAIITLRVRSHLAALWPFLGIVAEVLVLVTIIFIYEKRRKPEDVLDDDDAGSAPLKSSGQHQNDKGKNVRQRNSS
Experiment: cell-based or functional assay

B1: humanized antibody HP6H8-1 (antibody, V domains shown)
VH: EVQLVESGGGLVQPGGSLRLSCAASGFTFSNFWMNWVRQAPGKGLEWVSEIRLKSNNYATHYAESVKGRFTISRDDSKNTLYLQMNSLKTEDTAVYYCTSYDYEYWGQGTLVTVSA
VL: DIQMTQSPSTLSASVGDRVTLSCKASENVGTYVSWYQQKPGKAPKLLIYGASNRYTGVPSRFTGSGSGTDFTLTISSLQPEDFATYYCGQSYSYPFTFGSGTKLEIK
IC50, in vitro inhibition of Plasmodium falciparum strain 3D7 invasion of human erythrocytes (parasite rate after 72 hrs): 20 µg/mL
IC50, in vitro inhibition of Plasmodium falciparum strain Dd2 invasion of human erythrocytes (parasite rate after 72 hrs): 40 µg/mL
IC50, in vitro inhibition of Plasmodium falciparum strain FCC1 invasion of human erythrocytes (parasite rate after 72 hrs): 40 µg/mL
IC50, in vitro inhibition of Plasmodium falciparum strain Nf54 invasion of human erythrocytes (parasite rate after 72 hrs): 50 µg/mL
